The results in this text go back to the supplement of paper PMC10567573.

± gives the standard deviation.

This series can be described thus: protein stability index of a GFP-peptide fusion (GPS, HEK-293T) (PSI 1-6); higher = more stable.
The mark [1] stands for this setting: treatment: DMSO, c terminus: a fixed tail appended.
[2] abbreviates: treatment: MLN4924 1 uM, 8 h, c terminus: a fixed tail appended.
[3] abbreviates: treatment: DMSO, c terminus: native.
The mark [4] stands for this setting: treatment: MLN4924 1 uM, 8 h, c terminus: native.
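Further: 24-mer peptide tiles fused after GFP, lentivirally expressed, FACS-sorted into six equal bins by GFP/DsRed ratio, decoded by Illumina sequencing, PSI is the read-weighted mean bin number.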

As to QSEERKRIDELIESGKEEGMKIDL [KMT5A], the protein stability index was 5.583 ± 0.004 under setting [1] and 5.5 ± 0.13 under setting [2].
The matching figures for QSFGRLSLQPQQQQQRQRPPRPPP [N4BP2L1]: 4.64 ± 0.2 and 4.6 ± 0.32.
The matching figures for QSLRDLGVKISEQQAEKILKSMDK [SLC25A25]: 4.12 ± 0.28 and 4.19 ± 0.35.
The matching figures for QTLLPAACLLQLAEIQEACCEFLK [KLHL20]: 2.21 ± 0.31 and 2.36 ± 0.15.
In the case of QVGTMALWASQREKEVLRRERAVE [ZBED2], the protein stability index worked out at 4.11 ± 0.26 under setting [1] and 4.31 ± 0.18 under setting [2].
Regarding QVLPDSESLPRSEIDEKVTDLVQF [MAGEA10], the protein stability index is 5.03 ± 0.3 under setting [1] and 4.99 ± 0.35 under setting [2].
The matching figures for QVNEINFENMSNDDAVRVLREIVH [DVL3]: 3.01 ± 0.16 and 3.09 ± 0.37.
For QWQDLMSIMEMQAMEVNTSASEIL [NFE2L1], in that order: 2.88 ± 0.45 and 2.86 ± 0.4.
The matching figures for RAGVQWKFAGSFYFAITVITTIGY [KCNK9]: 3.03 ± 0.064 and 3.11 ± 0.4.
Regarding RALSEYLAVFARCLAGCEGAHEQV [P3H4], the protein stability index is, setting by setting: under setting [1], 2.62 ± 0.86; under setting [2], 2.89 ± 0.91.
In the case of RALVRQFGQQDWKFLASHFPNRTD [MYBL2], the protein stability index reads like this: under setting [1], 3.09 ± 0.41; under setting [2], 2.93 ± 0.19.
The matching figures for RASGEHVTDEEIESLMKDGDKNND [TNNC2]: 5.66 ± 0.12 and 5.68 ± 0.2.
RATSLGRPEEEEDELAHRCSSFMA [CPOX]: the protein stability index under setting [1] is 4.68 ± 0.33 and the protein stability index under setting [2] turned out to be 4.71 ± 0.17.
The matching figures for RAWEVDWFSLASVIFLLLFAPFIV [DHCR7]: 2.43 ± 0.45 and 2.65 ± 0.57.
Sequence RCVSFQARFAEKEELMLVHSLEYI [HDAC6] had a protein stability index under setting [2] of 2.19 ± 0.3.
Regarding RDLLGALKHWRRAMELRHQGGEYL [FEM1A], the protein stability index under setting [1] came out at 2.46 ± 0.2 and the protein stability index under setting [2] worked out at 2.5 ± 0.45.
The matching figures for RDPFECNMCGYHSQDRYEFSSHIT [IKZF1]: 2.33 ± 0.4 and 2.33 ± 0.59.
For RELGRLRQQVTNHGRGTEVLLEEP [ZNF263], in that order: 4.7 ± 0.39 and 4.58 ± 0.33.
The matching figures for RESGAEPQEAVLQQLHQLPRGRLD [LRRC45]: 5.06 ± 0.3 and 5.16 ± 0.25.
As for RFPGRKQPGVHEEPVLKKWPKLKS [C22orf31], the protein stability index runs as follows: under setting [1], 3.72 ± 0.49; under setting [2], 3.57 ± 0.15.
RGAQGILLVYDITNRWSFDGIDRW [RAB40C]: the protein stability index runs as follows: under setting [1], 2.93 ± 0.91; under setting [2], 2.79 ± 0.42.
For RGEVPWSPELGRPHDRSQGDWAPP [ZNF263], in that order: 4 ± 0.19 and 4.12 ± 0.35.
For the sequence RIGKRPDLLTFVQNLCKGLSQPTT [NEUROD6], the protein stability index is, setting by setting: under setting [1], 2.3 ± 0.22; under setting [2], 2.17 ± 0.083.
Consider RILWKKIQENQRNLYEEGRTAFLW [TRIM43], for which the protein stability index is, setting by setting: under setting [1], 2.08 ± 0.36; under setting [2], 2.31 ± 0.28.
For RKEGIVKLKPHEEPLRSEILSGKF [PTPN9], the protein stability index stood at 4.16 ± 0.13 under setting [1] and 4.08 ± 0.14 under setting [2].
The matching figures for RKVTDSISKSLELCNEISLSEIKD [DLC1]: 4.136 ± 0.019 and 4.26 ± 0.11.
For the sequence RLCAPLFRNIKQEPFSARVLVLCV [SOAT1], the protein stability index stood at 2.73 ± 0.84 under setting [1] and 2.85 ± 1.4 under setting [2].
Turning to RLDGQQEPQPFVTSDVYSSDAAFG [MYORG], the protein stability index was 4.56 ± 0.26 under setting [1] and 4.63 ± 0.14 under setting [2].
RLFEDVRSWMFRRGPLNSDRSDYF [TRIM43]: the protein stability index runs as follows: under setting [1], 2.54 ± 0.42; under setting [2], 2.63 ± 0.13.
In the case of RLGRCMRRLRDMVERPHSGLPGKV [KCNG1], the protein stability index under setting [1] is 2.4 ± 0.17 and the protein stability index under setting [2] amounted to 2.69 ± 0.24.
For RLLALIYLAHASDVLENAFAPLLD [GOLPH3], the protein stability index by setting is: under setting [1], 2.65 ± 0.48; under setting [2], 2.7 ± 0.71.
The matching figures for RLLDHQDNILSLINVNDLSFVTGS [WDR41]: 2.22 ± 0.28 and 2.51 ± 0.3.
The matching figures for RLLGTAGTEEKKKLIRDFDEKQQE [VTI1B]: 5.06 ± 0.15 and 5.11 ± 0.33.
Regarding RMKETQKSIYYITGESKEQVANSA [HSP90AB1], the protein stability index was determined as 4.07 ± 0.34 under setting [1] and 4.2 ± 0.25 under setting [2].
For the sequence RMRYEGVVDIFQTVKMLRTQRPAM [PTPRD], the protein stability index reads like this: under setting [1], 2.18 ± 0.18; under setting [2], 2.38 ± 0.29.
The matching figures for RNLAKRRRTYLGGAAGRSQEPEVP [RSPH3]: 4.38 ± 0.26 and 4.32 ± 0.2.
With RPPTPLFIPAKTGKDVATQILEGE [RSPH3], the protein stability index is 4.82 ± 0.15 under setting [1] and 5.01 ± 0.11 under setting [2].
In turn, RPRGKERHKSGVHQPPQAGAGDVV [LYSMD4] displayed a protein stability index under setting [1] of 5.07 ± 0.27 and a protein stability index under setting [2] of 5.07 ± 0.057.
The matching figures for RQETVDCLKKFNARRKLKGAILTT [CAMK2A]: 3.15 ± 0.26 and 3.33 ± 0.24.
The matching figures for RQVPGSDPACYEFLWGPRALVETS [MAGEA3]: 3.11 ± 0.23 and 3.04 ± 0.37.
The matching figures for RRETVLFTDYGLAALAVNTSILSR [RNF208]: 2.09 ± 0.43 and 2.12 ± 0.18.
As to RRFNENAADRHINFCKEQAARISN [ZC2HC1A], the protein stability index by setting is: under setting [1], 2.56 ± 0.17; under setting [2], 2.51 ± 0.39.
With RRGIGGIFFDDLDSPSKEEVFRFV [CPOX], the protein stability index under setting [1] was determined as 2.28 ± 0.2 and the protein stability index under setting [2] came to 2.64 ± 0.27.
For RRKRTYWNDSCGEDMEASDYELED [WEE1], in that order: 4.37 ± 0.3 and 4.92 ± 0.27.
The matching figures for RRPEVDPLPFPGPFPAGPLAVAGG [ESRRA]: 3.56 ± 0.21 and 3.71 ± 0.24.
Consider RSGHTQTDYINASFMDGYKQKNAY [PTPN9], for which the protein stability index reads like this: under setting [1], 3.52 ± 0.2; under setting [2], 3.61 ± 0.18.
For RTELVEQAFRAIDRADYYLEEFKE [PCMTD2], in that order: 4.1 ± 0.12 and 4.12 ± 0.19.
As to RTHINAVVAKIQAKIPGAKRHAE [RTN1], the protein stability index reads like this: under setting [3], 2.74 ± 0.25; under setting [4], 3.04 ± 0.36.
As for RTMRLWNIEEIDEIPLVIKYKKAV [WDR88], the protein stability index was determined as 2.3 ± 0.4 under setting [1] and 2.26 ± 0.31 under setting [2].
For RTYRYSNRYCGGPGPPITDCEMNS [DYRK1B], in that order: 2.67 ± 0.23 and 2.56 ± 0.11.
As to RVLMYGSELDADHPGFKDNVYRKR [TPH1], the protein stability index by setting is: under setting [1], 3.59 ± 0.11; under setting [2], 3.8 ± 0.29.
The matching figures for RVYNNTLTYGEVRNSKASAYCLDQ [GALNT9]: 2.98 ± 0.16 and 3.07 ± 0.31.
On to RYIIFKRNTLNQPCSGSVSLQPRR [GMCL1], for which the protein stability index worked out at 2.27 ± 0.22 under setting [1] and 2.36 ± 0.43 under setting [2].
As to RYRGRGSEEYRAPRPQSEESWDEE [CHGB], the protein stability index was 5.28 ± 0.51 under setting [1] and 5.34 ± 0.33 under setting [2].
Turning to SALEEAFRRFAVHGDARATGREMH [TPPP], the protein stability index amounted to 3.22 ± 0.38 under setting [1] and 3.12 ± 0.12 under setting [2].
Consider SDPDCSMRPTLIDLLPTFRHTLQK [FBXO39], for which the protein stability index reads like this: under setting [1], 3.33 ± 0.27; under setting [2], 3.45 ± 0.28.
For SDTIYSYVRPERLSPISHGNTIAL [TCF25], in that order: 2.37 ± 0.22 and 2.56 ± 0.31.
On to SEDGSYGTDVTRCICGFTHDDGYM [KMT2E], for which the protein stability index reads like this: under setting [1], 3.33 ± 0.42; under setting [2], 3.36 ± 0.34.
Turning to SEDWTMEERFRPLTFHGLILRSQL [CLCN6], the protein stability index is 2.32 ± 0.13 under setting [1] and 2.23 ± 0.18 under setting [2].
For SEEQFRQRSPLGGDVLHAHLDIWK [SPDEF], in that order: 3.34 ± 0.36 and 3.27 ± 0.1.
Turning to SEFQAALSRKVAKLVHFLLLKYRA [MAGEA6], the protein stability index runs as follows: under setting [1], 2.45 ± 0.56; under setting [2], 2.13 ± 0.29.
The matching figures for SEIRCDLERQNQEYQVLLDVKARL [KRT36]: 3.38 ± 0.19 and 3.34 ± 0.2.
Take SFLEQIMAPLQPSTSRAHKLPSRR [FAM189A2]: the protein stability index by setting is: under setting [1], 2.8 ± 0.4; under setting [2], 3.1 ± 0.3.
SFLQNAVLAYVQASPVRTLSPPK [LRRC45] showed a protein stability index under setting [3] of 2.3 ± 0.32 and a protein stability index under setting [4] of 2.1 ± 0.18.
Take SFSRPADLDLIQSTPFKPLALKTP [MFF]: the protein stability index is, setting by setting: under setting [1], 3.19 ± 0.46; under setting [2], 3.5 ± 0.048.
SFTLEEEEEGGEEEEEAAMYEEEM [FAM50A]: the protein stability index worked out at 5.47 ± 0.43 under setting [1] and 5.36 ± 0.2 under setting [2].
For SGEEFYMLTRRVLQLETVLEGVVS [PKD2L1], the protein stability index runs as follows: under setting [1], 2.17 ± 0.45; under setting [2], 2.56 ± 0.17.
The matching figures for SGEVLNGAAVVRPPGHHAEQDAAC [HDAC6]: 5.32 ± 0.31 and 5.13 ± 0.14.
The matching figures for SGSGFGSVSWWGLSPALDLQAESP [DNAAF3]: 2.69 ± 0.56 and 2.43 ± 0.097.
For SGWIFFYVPSSESFIIYLKNIVIA [P2RY14], in that order: 3.26 ± 0.53 and 3.09 ± 0.88.
Consider SHDPQSSRGSRRRRRQRSEKKKAH [KCNA4], for which the protein stability index stood at 5.38 ± 0.53 under setting [1] and 5.38 ± 0.23 under setting [2].
As to SIDKDEEFAGSSPQSSKSTVVKSL [FAN1], the protein stability index was 5.165 ± 0.042 under setting [1] and 5.27 ± 0.27 under setting [2].
